The target in the data set is Staphylococcal enterotoxin B (SEB) (Staphylococcus aureus, UniProt P01552 28-266).
Chain of Staphylococcal enterotoxin B (SEB) (P01552 28-266): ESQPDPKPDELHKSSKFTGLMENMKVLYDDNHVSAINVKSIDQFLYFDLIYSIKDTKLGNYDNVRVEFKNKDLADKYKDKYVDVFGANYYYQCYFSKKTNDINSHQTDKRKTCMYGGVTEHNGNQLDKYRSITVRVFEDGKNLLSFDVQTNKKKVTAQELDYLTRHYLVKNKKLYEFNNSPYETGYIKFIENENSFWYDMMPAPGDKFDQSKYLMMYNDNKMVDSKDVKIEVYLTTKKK

B1: SEB aptamer (ssDNA)
DNA: GGTATTGAGGGTCGCATCCACTGGTCGTTGTTGTCTGTTGTCTGTTATGTTGTTTCGTGATGGCTCTAACTCTCCTCT
Turning to B1, the binding result is recorded as “binds”.

B2: SEB aptamer1 (6-FAM) (ssDNA)
DNA: GGTATTGAGGGTCGCATCCACTGGTCGTTGTTGTCTGTTGTCTGTTATGTTGTTTCGTGATGGCTCTAACTCTCCTCT
Consider B2, for which the binding result is listed as “binds”.

Source of the values: article PMC9080154.
